Test results taken from patent CN117946265A (HISUN BIO PHARMACEUTICAL CO LTD; ZHEJIANG BORUI BIOLOGICAL …, dated 2024).
Values joined by “and” are separate entries in the source; they are usually repeats but may differ in a detail not shown here. Equal values may be shown once.

T1: 人CX3CL1胞外区蛋白 CX3CL1(Q25-Q341)-6xHis (human, UniProt P78423 25-341)
T1 construct: Expressed in 293 cells; also called huCX3CL1-His; Fractalkine
T1 sequence: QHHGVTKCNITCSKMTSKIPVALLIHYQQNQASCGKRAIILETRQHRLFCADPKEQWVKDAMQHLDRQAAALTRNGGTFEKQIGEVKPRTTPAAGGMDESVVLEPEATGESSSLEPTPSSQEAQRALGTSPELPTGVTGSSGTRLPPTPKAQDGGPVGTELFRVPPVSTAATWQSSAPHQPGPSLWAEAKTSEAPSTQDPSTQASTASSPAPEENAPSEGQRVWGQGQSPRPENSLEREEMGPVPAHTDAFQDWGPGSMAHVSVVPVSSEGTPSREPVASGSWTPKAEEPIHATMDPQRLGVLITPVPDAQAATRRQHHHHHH


Columns and labels:
[1] = target: T1, 人CX3CL1胞外区蛋白 CX3CL1(Q25-Q341)-6xHis; experiment: FACS competition: antibody blocks huCX3CL1-His binding to CHOK1-hCX3CR1 cells
[2] = target: T1, 人CX3CL1胞外区蛋白 CX3CL1(Q25-Q341)-6xHis; experiment: cell-based or functional assay
[3] = target: T1, 人CX3CL1胞外区蛋白 CX3CL1(Q25-Q341)-6xHis; experiment: cell-based or functional assay; remark: listed apart in the source

Row | IC50 [1] | 抑制细胞迁移活性 IC50 [2] [nM] | 抑制cAMP活性 IC50 [3] | 抑制cAMP活性 MAX [3] | Binder
1 | 1.96 nM | 19 | 5.69 nM and 4.07 nM | – | Tab#1 (antibody, human IgG2, kappa, V domains shown, also called Quetmolimab; CX3CL1阳性对照抗体) VH: QVQLVQSGAEVKKPGASVKVSCKASGYTFTNYYIHWVKQAPGQGLEWIGWIYPGDGSPKFNERFKGRTTLTADKSTNTAYMLLSSLRSEDTAVYFCATGPTDGDYFDYWGQGTTVTVSS VL: DIQMTQSPSSLSASVGDRVTITCRASGNIHNFLAWYQQKPGKAPKLLIYNEKTLADGVPSRFSGSGSGTDYTLTISSLQPEDFATYFCQQFWSTPYTFGGGTKVEIKR
2 | 0.811 nM and 1.49 nM | 2.27 | 3.96 nM | 97 | C032QG (antibody, human IgG2, kappa, V domains shown, Chimeric IgG2 mutant of C032 removing the NG hot spot of HCDR2 (NG to QG)) VH: EVQLQQSGPELVKPGASVKISCKASGYTFTDYYMNWVKQSHGKSLEWIGDINPNQGGTSYNQKFKGKATLTVDKSSSTAYMELRSLTSEDSAVYYCASSGNSYVDYWGQGTTLTVSS VL: DIVMTQSHKFMSTSVGDRVSITCKASQDVSTAVAWYQQKPGQSPKLLIYWASTRHTGVPDRFTGSGSGTDYTLTISSVQAEDLALYYCQQHYSSPYTFGGGTKLEIKR
3 | 6.1 nM | 7.55 | 0.7 nM | 100 | mAb017 (antibody, V domains shown, Murine monoclonal antibody purified from hybridoma supernatant; also called 36C7-1G2) VH: QIQLVQSGPELKKPGETVKISCKASVYTFTEYAMHWVKQAPGKGFKWMGWINTNSGEPTYADDFKGRFAFSLETSASTAYLQINNLKNEDTATYFCGRGRVVGSFDYWGQGTTLTVSS VL: not shown

The next lines start with the binder.

Row | Binder | IC50 [1] | 抑制细胞迁移活性 IC50 [2] [nM] | 抑制cAMP活性 IC50 [3] | 抑制cAMP活性 MAX [3]
4 | C032 (antibody, human IgG2, kappa, V domains shown, Human-mouse chimeric antibody of mAb032 with human IgG2 constant region, expressed in CHOK1; also called 嵌合抗体C032) VH: EVQLQQSGPELVKPGASVKISCKASGYTFTDYYMNWVKQSHGKSLEWIGDINPNNGGTSYNQKFKGKATLTVDKSSSTAYMELRSLTSEDSAVYYCASSGNSYVDYWGQGTTLTVSS VL: DIVMTQSHKFMSTSVGDRVSITCKASQDVSTAVAWYQQKPGQSPKLLIYWASTRHTGVPDRFTGSGSGTDYTLTISSVQAEDLALYYCQQHYSSPYTFGGGTKLEIKR | 0.731 nM | 2.49 | 3.4 nM | 95.8
5 | mAb022 (antibody, V domains shown, Murine monoclonal antibody purified from hybridoma supernatant; also called 15F7B2) VH: EVQLQQSGPELVKPGASVKISCKASGYTFTDYYMNWVKQSHGKSLEWIGDINPNNGGTNYNQKFKGKATLTVDKSSSTAYMELRSLTSEDSAVFYCASSGNSYVDYWGQGTTLTVSS VL: DIVMTQSHKFMSTSVGDRVNITCKASQDVSTAVAWYQQKPGQSPKLLIYWASTRHTGVPDRFTGSGSGTDYTLTISSVQAEDLALYYCQQHYSSPYTFGGGTKLEIK | 7.6 nM | 7.19 | 0.8 nM | 105
6 | C022 (antibody, human IgG2, kappa, V domains shown, Human-mouse chimeric antibody of mAb022 with human IgG2 constant region, expressed in CHOK1; also called 嵌合抗体C022) VH: EVQLQQSGPELVKPGASVKISCKASGYTFTDYYMNWVKQSHGKSLEWIGDINPNNGGTNYNQKFKGKATLTVDKSSSTAYMELRSLTSEDSAVFYCASSGNSYVDYWGQGTTLTVSS VL: DIVMTQSHKFMSTSVGDRVNITCKASQDVSTAVAWYQQKPGQSPKLLIYWASTRHTGVPDRFTGSGSGTDYTLTISSVQAEDLALYYCQQHYSSPYTFGGGTKLEIKR | 0.885 nM and 1.7 nM | – | 2.41 nM and 3.28 nM | –
7 | C032NA (antibody, human IgG2, kappa, V domains shown, Chimeric IgG2 mutant of C032 removing the NG hot spot of HCDR2 (NG to NA)) VH: EVQLQQSGPELVKPGASVKISCKASGYTFTDYYMNWVKQSHGKSLEWIGDINPNNAGTSYNQKFKGKATLTVDKSSSTAYMELRSLTSEDSAVYYCASSGNSYVDYWGQGTTLTVSS VL: DIVMTQSHKFMSTSVGDRVSITCKASQDVSTAVAWYQQKPGQSPKLLIYWASTRHTGVPDRFTGSGSGTDYTLTISSVQAEDLALYYCQQHYSSPYTFGGGTKLEIKR | 0.865 nM | 4 | 3.63 nM | 92.5
8 | mAb032 (antibody, V domains shown, Murine monoclonal antibody purified from hybridoma supernatant; also called 18H6F1) VH: EVQLQQSGPELVKPGASVKISCKASGYTFTDYYMNWVKQSHGKSLEWIGDINPNNGGTSYNQKFKGKATLTVDKSSSTAYMELRSLTSEDSAVYYCASSGNSYVDYWGQGTTLTVSS VL: DIVMTQSHKFMSTSVGDRVSITCKASQDVSTAVAWYQQKPGQSPKLLIYWASTRHTGVPDRFTGSGSGTDYTLTISSVQAEDLALYYCQQHYSSPYTFGGGTKLEIK | 11.5 nM | 8.72 | 1.07 nM | 115
9 | HumAb032-4 (antibody, human IgG2, kappa, V domains shown, Full-length humanized IgG2/kappa antibody) VH: EVQLVQSGAEVKKPGATVKISCKASGYTFTDYYMNWVQQAPGKSLEWMGDINPNQGGTSYNQKFKGRVTLTVDKSTSTAYMELSSLRSEDTAVYYCASSGNSYVDYWGQGTTVTVSS VL: DIQMTQSPSSLSASVGDRVTITCKASQDVSTAVAWYQQKPGKAPKLLLYWASTRHTGVPSRFSGSGSGTDYTLTISSLQPEDFATYYCQQHYSSPYTFGGGTKVEIKR | 1.22 nM | – | – | –
10 | HumAb022-4 (antibody, human IgG2, kappa, V domains shown, Full-length humanized IgG2/kappa antibody) VH: EVQLVQSGAEVKKPGATVKISCKASGYTFTDYYMNWVQQAPGKSLEWMGDINPNQGGTNYNQKFKGRVTLTVDKSTSTAYMELSSLRSEDTAVYYCASSGNSYVDYWGQGTTVTVSS VL: DIQMTQSPSSLSASVGDRVTITCKASQDVSTAVAWYQQKPGKAPKLLLYWASTRHTGVPSRFSGSGSGTDYTLTISSLQPEDFATYYCQQHYSSPYTFGGGTKVEIKR | 1.27 nM | 0.299 | 2.69 nM | 100
